Measured values: US20250270319A1 (Alector, published 2025)
Residue numbers refer to the chain shown, from its start. Where two headings read alike, the source gives them in different places. Each block holds one binder with its values, some of them ahead of it.

Legend:
[1] = biological target: T1, human CD33 on primary human dendritic cells (human, UniProt P20138 18-364); assay: cell-based or functional assay
[2] = biological target: T2, recombinant cynomolgus CD33 protein (NovoProtein) (cynomolgus); assay: ELISA, plate coated with recombinant CD33
T2 construct: Bought protein; also called cyno CD33

[3] = biological target: T3, recombinant human CD33 protein (Sino Biologicals) (human, UniProt P20138 18-259); assay: ELISA, plate coated with recombinant CD33
T3 construct: Bought protein; also called recombinant CD33

[4] = biological target: T3, recombinant human CD33 protein (Sino …); assay: BLI (ForteBio), antibody on anti-human Fc sensor, CD33 10 nM
Description: Affinity parameters of the antibody variants for human CD33 were measured by BioLayer Interferometry in a ForteBio assay according to standard techniques (Estep et al. (2013) MAbs 5(2): 270-8) and were compared to those of the parental antibody (antibody 6C7H8) and the parental humanized antibody (antibody 6C71H5). Briefly, the antibodies were captured on anti-human Fc Biosensors (Pall ForteBio). Recombinant human CD33 (10 nM, Sino Biologicals) was then bound to the captured anti-CD33 surface (200 s association time, 1200 s dissociation time). Local fitting was used to extract association and dissociation rate constants (kₐ and kd, respectively) for each antibody. Apparent affinity constants (KD) were calculated from the ratio kd/kₐ.

[5] = biological target: T1, human CD33 on primary human dendritic …; assay: cell-based or functional assay; remark: listed apart in the source
[6] = biological target: T1, human CD33 on primary human dendritic …; assay: cell-based or functional assay; remark: listed apart in the source
[7] = biological target: T1, human CD33 on primary human dendritic …; assay: cell-based or functional assay; remark: listed apart in the source
[8] = biological target: T1, human CD33 on primary human dendritic …; assay: flow cytometry on primary human dendritic cells, antibody dilutions, fluorescent anti-human IgG secondary
Description: The 7 humanized anti-CD33 antibodies of 6C7 were evaluated for binding to primary dendritic cells by flow cytometry, and binding was compared to that of an anti-CD33 6C7 chimeric antibody that contained the variable heavy chain sequence and the variable light chain sequence of anti-CD33 antibody 6C7. Monocytes were isolated from blood from healthy human donors using the RosetteSep™ monocyte isolation antibody cocktail (StemCell Technologies). The isolated monocytes were differentiated into dendritic cells with 100 ng/mL GM-CSF and 100 ng/mL IL-4 (Peprotech). Dendritic cells were incubated with dilutions of the anti-CD33 antibodies for 30 minutes on ice in the dark, followed by a 30-minute incubation with a fluorescently-conjugated anti-human IgG secondary antibody. Cells were washed twice in FACS buffer (PBS+2% FBS, 2 mM EDTA), and flow cytometry was performed on a BD FACS Canto. Data were analyzed using FlowJo software (Ashland, OR).

[9] = biological target: T1, human CD33 on primary human dendritic …; assay: flow cytometry, primary human dendritic cells, 2 ug/mL

T1 sequence (P20138 18-364): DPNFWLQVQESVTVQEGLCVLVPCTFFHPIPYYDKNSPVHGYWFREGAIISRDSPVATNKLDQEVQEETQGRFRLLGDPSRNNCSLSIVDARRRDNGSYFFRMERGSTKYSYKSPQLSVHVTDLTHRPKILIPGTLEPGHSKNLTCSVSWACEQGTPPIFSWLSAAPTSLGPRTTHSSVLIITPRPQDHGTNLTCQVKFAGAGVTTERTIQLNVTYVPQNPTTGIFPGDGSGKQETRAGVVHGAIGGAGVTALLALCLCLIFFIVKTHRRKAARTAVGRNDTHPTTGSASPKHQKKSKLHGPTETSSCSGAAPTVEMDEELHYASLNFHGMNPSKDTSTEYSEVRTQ
T2 sequence (chain, as listed by the source limits assumed): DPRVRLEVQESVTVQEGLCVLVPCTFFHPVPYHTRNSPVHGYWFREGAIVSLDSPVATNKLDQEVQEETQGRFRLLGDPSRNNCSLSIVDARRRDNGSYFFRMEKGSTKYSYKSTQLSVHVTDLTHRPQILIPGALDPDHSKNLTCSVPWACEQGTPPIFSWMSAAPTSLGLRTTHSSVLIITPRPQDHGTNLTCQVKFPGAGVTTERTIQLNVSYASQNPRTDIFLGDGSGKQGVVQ
T3 sequence (P20138 18-259 limits assumed): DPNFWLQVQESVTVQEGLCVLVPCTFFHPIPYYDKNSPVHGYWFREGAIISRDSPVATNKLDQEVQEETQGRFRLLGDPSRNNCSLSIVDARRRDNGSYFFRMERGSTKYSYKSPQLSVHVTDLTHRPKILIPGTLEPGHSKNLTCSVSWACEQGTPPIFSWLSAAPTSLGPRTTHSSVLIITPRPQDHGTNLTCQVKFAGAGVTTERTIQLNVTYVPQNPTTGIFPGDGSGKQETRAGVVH

- Fold change in potency from IgG1 [1]: 1.2 fold
- Maximal downregulation (% CD33 remaining) [1]: 14.3 % CD33 remaining
- Receptor downregulation, (pM, EC50) [1]: 25.3 pM
B1: 6C7H54 IgG2 (antibody)
heavy: EVQLVESGGGLVQPGGSLRLSCAGSGFTFSNYEMNWVRQAPGKGLEWVAEIRLKSNNYVTNYAASVKGRFTISRDDSKNSVYLQMNSLKTEDTGVYYCTRAGYYVPFAYWGQGTLVTVSSASTKGPSVFPLAPCSRSTSESTAALGCLVKDYFPEPVTVSWNSGALTSGVHTFPAVLQSSGLYSLSSVVTVPSSNFGTQTYTCNVDHKPSNTKVDKTVERKCCVECPPCPAPPVAGPSVFLFPPKPKDTLMISRTPEVTCVVVDVSHEDPEVQFNWYVDGVEVHNAKTKPREEQFNSTFRVVSVLTVVHQDWLNGKEYKCKVSNKGLPAPIEKTISKTKGQPREPQVYTLPPSREEMTKNQVSLTCLVKGFYPSDIAVEWESNGQPENNYKTTPPMLDSDGSFFLYSKLTVDKSRWQQGNVFSCSVMHEALHNHYTQKSLSLSPGK
light: QLMLTQSPSASASLGASVKLTCTLSSQHSTYTIEWYQQQPGKGPRYLMELKKEGSHSTGDGIPDRFSGSSSGAERYLTISSLQSEDEADYYCGVGHTIKEQFVYVFGGGTKLTVLGQPKAAPSVTLFPPSSEELQANKATLVCLISDFYPGAVTVAWKADSSPVKAGVETTTPSKQSNNKYAASSYLSLTPEQWKSHRSYSCQVTHEGSTVEKTVAPTECS

- EC50 [2]: 3.84 nM
- Relative maximal binding (cyno/human) [2]: 0.5
- Relative potency (human/cyno) [2]: 0.04
- EC50 [3]: 0.16 nM
- Kd [4]: 0.436 nM
- koff [4]: 0.00012 s⁻¹
- kon [4]: 275000 M⁻¹ s⁻¹
- Maximal reduction in CD33 (% remaining) [5]: 21 % remaining
- Receptor downregulation, (EC50) (pM) [5]: 42.4 pM
- Receptor downregulation, (EC50) (pM) [6]: 42.4 pM
- Receptor downregulation, (EC50) (pM) [7]: 42.4 pM
B2: anti-CD33 antibody 6C7H5 (antibody, V domains shown)
VH: EVQLVESGGGLVQPGGSLRLSCAGSGFTFSNYCMNWVRQAPGKGLEWVAEIRLKSNNYVTNYAASVKGRFTISRDDSKNSVYLQMNSLKTEDTGVYYCTRDGYYVPFAYWGQGTLVTVSS
VL: QLVLTQSPSASASLGASVKLTCTLSSQHSTYTIEWYQQQPEKGPRYLMELKKDGSHSTGDGIPDRFSGSSSGAERYLTISSLQSEDEADYYCGVGDTIKEQFVYVFGGGTKLTVL
notes: Humanized 6C7; VH/VL only; also called parental humanized antibody

- Fold change in potency from IgG1 [1]: 0.58 fold
- Maximal downregulation (% CD33 remaining) [1]: 62.3 % CD33 remaining
- Receptor downregulation, (pM, EC50) [1]: 1350 pM
B3: 6C7H10 IgG1 LALAPS (antibody)
chain 1: not shown
chain 2: B2 VL with D53E

- Fold change in potency from IgG1 [1]: 2.4 fold
- Maximal downregulation (% CD33 remaining) [1]: 23.9 % CD33 remaining
- Receptor downregulation, (pM, EC50) [1]: 12.6 pM
B4: 6C7H54 IgG1 PS (antibody)
chain 1: not shown
chain 2: B2 VL with V3M, E41G, D53E, D96H

- Fold change in potency from IgG1 [1]: 25.8 fold
- Maximal downregulation (% CD33 remaining) [1]: 19.6 % CD33 remaining
- Receptor downregulation, (pM, EC50) [1]: 30.1 pM
B5: 6C7H10 IgG1 SELF (antibody)
chain 1: not shown
chain 2: B2 VL with D53E

- binding result [8]: binds
B6: anti-CD33 antibody 6C7H3 (antibody, V domains shown)
VH: B2 VH with G24A, A49G, V81L, G94A, T99A
VL: B2 VL
notes: Humanized 6C7; VH/VL only

- binding relative to the parental antibodies [9]: < 60%
- Kd [4]: 0.238 nM
- koff [4]: 0.00114 s⁻¹
- kon [4]: 4.79e+06 M⁻¹ s⁻¹
B7: anti-CD33 antibody 6C7H19 (antibody, V domains shown)
VH: B2 VH with C33R, D101A
VL: B2 VL with D53E
notes: VH/VL only

- binding result [8]: binds
B8: anti-CD33 antibody 6C7H7 (antibody, V domains shown)
VH: B2 VH with V81L, G94A
VL: B2 VL with V18A, L47V, L82I, Y91I, L112V
notes: Humanized 6C7; VH/VL only

- binding relative to the parental antibodies [9]: < 60%
- Kd [4]: 0.467 nM
- koff [4]: 0.00113 s⁻¹
- kon [4]: 2.41e+06 M⁻¹ s⁻¹
- Fold increase in potency compared to 6C7H5 [5]: 0.03 fold
- Receptor downregulation, (EC50) (pM) [5]: 1230 pM
B9: anti-CD33 antibody 6C7H22 (antibody, V domains shown)
VH: B2 VH with C33T, D101A
VL: B2 VL with D53E
notes: VH/VL only

- binding relative to the parental antibodies [9]: < 60%
- Kd [4]: 2.73 nM
- koff [4]: 0.00365 s⁻¹
- kon [4]: 1.34e+06 M⁻¹ s⁻¹
- Fold increase in potency compared to 6C7H5 [5]: 0.03 fold
- Receptor downregulation, (EC50) (pM) [5]: 1520 pM
B10: anti-CD33 antibody 6C7H27 (antibody, V domains shown)
VH: B2 VH with N31D, C33T, D101A
VL: B2 VL with D53E
notes: VH/VL only

- binding relative to the parental antibodies [9]: < 60%
- Kd [4]: 3.88 nM
- koff [4]: 0.0031 s⁻¹
- kon [4]: 801000 M⁻¹ s⁻¹
- Fold increase in potency compared to 6C7H5 [5]: 0.01 fold
- Receptor downregulation, (EC50) (pM) [5]: 3640 pM
B11: anti-CD33 antibody 6C7H13 (antibody, V domains shown)
VH: B2 VH with C33F, D101A
VL: B2 VL with D53E
notes: VH/VL only

- binding result [8]: binds
B12: anti-CD33 antibody 6C7H4 (antibody, V domains shown)
VH: B2 VH with V81L, G94A
VL: B2 VL
notes: Humanized 6C7; VH/VL only

- binding result [8]: no binding (tested: about 2 ug/mL)
B13: anti-CD33 antibody 6C7H2 (antibody, V domains shown)
VH: B2 VH
VL: B2 VL with Y36H, E49K
notes: Humanized 6C7; VH/VL only

- binding result [8]: no binding (tested: about 1.2 ug/mL)
B14: anti-CD33 antibody 6C7H1 (antibody, V domains shown)
VH: B2 VH with G24A, A49G, V81L, G94A, T99A
VL: B2 VL with Y36H, E49K
notes: Humanized 6C7; VH/VL only

- binding relative to the parental antibodies [9]: < 60%
- Kd [4]: 1.27 nM
- koff [4]: 0.0059 s⁻¹
- kon [4]: 4.65e+06 M⁻¹ s⁻¹
B15: anti-CD33 antibody 6C7H30 (antibody, V domains shown)
VH: B2 VH with C33W, D101A
VL: B2 VL with D53E
notes: VH/VL only

- Kd [4]: 0.561 nM
- koff [4]: 0.000823 s⁻¹
- kon [4]: 1.47e+06 M⁻¹ s⁻¹
- Fold increase in potency compared to 6C7H5 [5]: 0.1 fold
- Maximal reduction in CD33 (% remaining) [5]: 21.2 % remaining
- Receptor downregulation, (EC50) (pM) [5]: 778 pM
- Maximal downregulation (% CD33 remaining) [1]: 21.2 % CD33 remaining
- Receptor downregulation, (pM, EC50) [1]: 778 pM
B16: anti-CD33 antibody 6C7H10 (antibody, IgG1, V domains shown)
VH: B2 VH with G24A, N31E, C33A, A49G, D101A
VL: B2 VL with D53E
notes: VH/VL only; also called 6C7H10 IgG1

- Relative maximal binding (cyno/human) [2]: 0.06
- EC50 [3]: 0.21 nM
- Kd [4]: 0.722 nM
- koff [4]: 0.000413 s⁻¹
- kon [4]: 572000 M⁻¹ s⁻¹
- Fold increase in potency compared to 6C7H5 [5]: 0.5 fold
- Maximal reduction in CD33 (% remaining) [5]: 21.5 % remaining
- Receptor downregulation, (EC50) (pM) [5]: 77.9 pM
- Receptor downregulation, (EC50) (pM) [6]: 77.9 pM
- Maximal downregulation (% CD33 remaining) [1]: 21.5 % CD33 remaining
- Receptor downregulation, (pM, EC50) [1]: 77.9 pM
B17: anti-CD33 antibody 6C7H8 (antibody, IgG1, V domains shown)
VH: B2 VH with D101A
VL: B2 VL with D53E
notes: VH/VL only; also called 6C7H8 IgG1; parental antibody

- binding result [8]: binds
B18: anti-CD33 antibody 6C7H6 (antibody, V domains shown)
VH: B2 VH with G24A, A49G, V81L, G94A, T99A
VL: B2 VL with V18A, L47V, L82I, Y91I, L112V
notes: Humanized 6C7; VH/VL only
